Results on two molecules are retold here after patent US8349320 (dated 2013).

Experiment [1] has as its target T1, mouse BTLA expressed on cells (mouse, UniProt Q7TSA3 30-306).
T1 chain: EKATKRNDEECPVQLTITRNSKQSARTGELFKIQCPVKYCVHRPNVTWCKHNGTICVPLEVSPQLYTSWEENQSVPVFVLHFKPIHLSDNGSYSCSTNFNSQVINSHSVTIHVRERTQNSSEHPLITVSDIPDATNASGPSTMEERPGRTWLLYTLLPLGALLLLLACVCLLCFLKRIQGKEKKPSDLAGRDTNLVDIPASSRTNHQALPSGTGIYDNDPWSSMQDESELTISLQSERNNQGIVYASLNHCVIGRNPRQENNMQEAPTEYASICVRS
Put plainly: FACS binding to transfected 293T cells; top panel. In general terms: A flow cytometer gives signals particle by particle.

The target of experiment [2] is T2, human BTLA expressed on cells (human, UniProt Q7Z6A9 31-289). Put plainly: FACS binding to transfected 293T cells; top panel.
T2 sequence (Q7Z6A9 31-289): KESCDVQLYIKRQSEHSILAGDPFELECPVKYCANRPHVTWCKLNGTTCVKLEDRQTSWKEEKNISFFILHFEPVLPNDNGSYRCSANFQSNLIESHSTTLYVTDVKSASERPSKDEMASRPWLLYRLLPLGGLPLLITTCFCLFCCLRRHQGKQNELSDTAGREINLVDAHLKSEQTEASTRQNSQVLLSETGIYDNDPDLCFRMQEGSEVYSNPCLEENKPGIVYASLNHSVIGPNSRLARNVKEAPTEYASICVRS
Experiment [3] addresses T2, human BTLA expressed on cells. Put plainly: FACS binding to transfected 293T cells; bottom panel; axis printed mHVEM:Fc, presumably hHVEM:Fc.

B1: mouse HVEM-Fc (Fc fusion)
chain: QPSCRQEEFLVGDECCPMCNPGYHVKQVCSEHTGTVCAPCPPQTYTAHANGLSKCLPCGVCDPDMGLLTWQECSSWKDTVCRCIPGYFCENQDGSHCSTCLQHTTCPPGQRVEKRGTHDQDTVCADCLTGTFSLGGTQEECLPWTNCSAFQQEVRRGTNSTDTTCSSQ
In general, EC50 refers to the concentration at which the effect is half-maximal. The low end stands for a more potent agent, the high end for a less potent agent. As for B1, the figures for the EC50 in experiment [1] and in experiment [2] were 0.8 µg/mL and 0.5 µg/mL, respectively.

B2: human HVEM-Fc (Fc fusion)
chain: LPSCKEDEYPVGSECCPKCSPGYRVKEACGELTGTVCEPCPPGTYIAHLNGLSKCLQCQMCDPAMGLRASRNCSRTENAVCGCSPGHFCIVQDGDHCAACRAYATSSPGQRVQKGGTESQDTLCQNCPPGTFSPNGTLEECQHQTKCSWLVTKAGAGTSSSHWV
modifications: in the FIG. 3H assay biotinylated with NHS-PEO4-Biotin, 2 biotin molecules per HVEM-Fc (sites not given)
Consider B2, for which the EC50 in experiment [3] is > 25 µg/mL.
